{
  "source": "patent US11766403B2",
  "about": "“Peptide-targeted liposomal delivery for treatment, diagnosis, and imaging of diseases and disorders” (University of Maryland, Baltimore, priority 2019, dated 2023)",
  "key": {"rat arthritic joints": {"tested_on": "rat arthritic joints", "experiment": "In vivo distribution of Cy7-labeled ART-2 peptide (homing to arthritic joints)", "details": "i.v., arthritic rats, 4 h", "experimental": "(§1) FIG. 4, comprising FIG. 4A through FIG. 4D, depicts in vitro and in vivo binding of ART-2 peptides. FIG. 4A depicts the binding of fluorescein isothiocyanate (FITC)-labeled ART-2 peptide to human umbilical vein endothelial cells (HUVEC) in vitro (HUVEC were treated with ART-2-FITC peptides for 2 h at the indicated concentrations). A representative histogram is shown. FIG. 4B depicts HUVEC that were stained with ART-2-FITC peptide at 0.5 μM concentration, PE-labeled CD31 (a marker for endothelial cells), and DAPI (for nucleus staining) and examined under a fluorescence microscope. FIG. 4C depicts in vivo distribution of Cyanine 7 (Cy7)-labeled ART-2 peptide: real-time fluorescence imaging of arthritic rats at 4 h time point after i.v. injection of the peptide following the procedure described in the legend to FIG. 7. FIG. 4D depicts images of ex-vivo fluorescence of different organs harvested from arthritic rats at 4 h after i.v. injection of ART-2-Cy7-peptide."}, "[1]": {"tested_on": "human umbilical vein endothelial cells (HUVEC)", "experiment": "Binding of FITC-labeled ART-2 peptide to endothelial cells in vitro", "type": "cell-based", "details": "2 h", "experimental": "as §1"}},
  "note": "Where no end group is shown, it is not given here.",
  "data": [
    {"sequence": "CKPFDRALC (not fully specified; cysteine pairing not given here) [ART-2, novel tissue-targeting peptide]", "values": [
      {"measurement": "homing to arthritic joints", "setting": "rat arthritic joints", "value": "preferential homing to rat arthritic joints"},
      {"measurement": "binding of peptide to endothelial cells", "setting": "[1]", "value": "avid binding to endothelial cells"}
    ]}
  ]
}
